# In publication PMC7982615, “Phase 1 study of telisotuzumab vedotin in Japanese patients with advanced solid tumors” (Cancer Medicine, 2021):
# Assay: Safety and tolerability (TEAEs, DLTs, AESIs) in phase 1 dose-escalation study of teliso‐v
# Assay type: in vivo, human
# Procedure: This phase 1, open‐label, dose‐escalation clinical trial was conducted at two sites in Japan (NCT03311477). Enrollment began on November 6, 2017, and the trial was completed on March 4, 2019.
# Escalation into the higher dose level proceeded if the first three evaluable patients in the lower dose level completed the first‐cycle (for at least 21 days) safety assessment without experiencing a dose‐limiting toxicity (DLT). DLT evaluations for dose escalation and determination of RP2D were carried out by investigators, study sponsor, and an independent safety monitor. […] No premedication was required. On the basis of confirmed availability of archival tumor tissue at enrollment, patients were retrospectively analyzed for c‐Met expression and MET amplification. c‐Met expression was determined by immunohistochemistry (IHC), and MET amplification was determined by fluorescence in situ hybridization or sequencing of plasma or tumor DNA.
# Safety assessments included treatment‐emergent adverse events (TEAEs) graded according to the National Cancer Institute Common Terminology Criteria for Adverse Events version 4.03. TEAEs, vital signs, physical examinations, electrocardiograms, laboratory tests, and ECOG performance status were monitored during the study. Any grade ≥3 study drug‐related nonhematologic toxicity was documented as a DLT, except as follows: grade 3 nausea or vomiting lasting ≤48 hours that was successfully managed with antiemetics; grade 3 diarrhea successfully managed with antidiarrheal; grade 3 constipation lasting ≤7 days; grade 3 acute infusion reaction that resolved to grade ≤1 within 24 hours after the end of dosing; grade 3 and 4 laboratory tests including but not limited to lactate dehydrogenase, alkaline phosphatase, and gamma‐glutamyl transferase that were considered nonclinically significant by the investigator; liver function test abnormalities; grade 3 and 4 electrolyte imbalance unless associated with clinical symptomatology despite supplementation; and grade 3 hyperglycemia that was manageable without hospitalization. The following hematologic toxicities were documented as a DLT: any grade 4 hematologic toxicity (excluding febrile neutropenia or leukopenia lasting for ≤7 days, or lymphopenia); anemia requiring red blood cell transfusion; thrombocytopenia requiring platelet transfusion; grade 3 thrombocytopenia in the presence of grade ≥2 bleeding; and grade ≥3 febrile neutropenia. Toxicity management criteria are described in the Supplementary appendix.
# All data were summarized and tabulated by dose cohort. Categoric data were summarized in terms of frequency counts and percentages. Continuous data were summarized using descriptive statistics, including number of observations, mean, standard deviation, median, minimum, and maximum. No formal statistical analysis was performed for efficacy variables, which were all exploratory in nature. ORR was defined as the proportion of patients with a confirmed partial response (PR) or complete response (CR). Duration of response was defined as time from a patient's initial objective response to the first date of disease progression (PD) or death. The overall disease control rate was defined as the proportion of patients with CR, PR, or stable disease (SD). […] PFS was estimated using the Kaplan–Meier method. Efficacy analyses are presented with two‐sided exact 95% binomial CI.
substance,measurement,setting,value
"Teliso‐v: antibody‐drug conjugate: anti–c‐Met humanized monoclonal antibody ABT‐700 coupled to monomethyl auristatin E through a valine‐citrulline linker, drug:antibody ratio approximately three","Alanine aminotransferase increased, TEAE regardless of relationship","2.4 mg/kg Q3W, n = 3",0 n (%)
same,"Alanine aminotransferase increased, TEAE related to teliso‐v","2.4 mg/kg Q3W, n = 3",0 n (%)
same,"Alopecia, TEAE regardless of relationship","2.4 mg/kg Q3W, n = 3",0 n (%)
same,"Alopecia, TEAE related to teliso‐v","2.4 mg/kg Q3W, n = 3",0 n (%)
same,"Anemia, TEAE regardless of relationship","2.4 mg/kg Q3W, n = 3",1 (33) n (%)
same,"Aspartate aminotransferase increased, TEAE regardless of relationship","2.4 mg/kg Q3W, n = 3",0 n (%)
same,"Aspartate aminotransferase increased, TEAE related to teliso‐v","2.4 mg/kg Q3W, n = 3",0 n (%)
same,"Back pain, TEAE regardless of relationship","2.4 mg/kg Q3W, n = 3",1 (33) n (%)
same,"Constipation, TEAE regardless of relationship","2.4 mg/kg Q3W, n = 3",0 n (%)
same,"Decreased appetite, TEAE regardless of relationship","2.4 mg/kg Q3W, n = 3",2 (67) n (%)
same,"Decreased appetite, TEAE related to teliso‐v","2.4 mg/kg Q3W, n = 3",2 (67) n (%)
same,"Diarrhea, TEAE regardless of relationship","2.4 mg/kg Q3W, n = 3",1 (33) n (%)
same,"Fatigue, TEAE regardless of relationship","2.4 mg/kg Q3W, n = 3",1 (33) n (%)
same,"Fatigue, TEAE related to teliso‐v","2.4 mg/kg Q3W, n = 3",1 (33) n (%)
same,"Hypoalbuminemia, TEAE regardless of relationship","2.4 mg/kg Q3W, n = 3",0 n (%)
same,"Malaise, TEAE regardless of relationship","2.4 mg/kg Q3W, n = 3",2 (67) n (%)
same,"Malaise, TEAE related to teliso‐v","2.4 mg/kg Q3W, n = 3",2 (67) n (%)
same,"Nausea, TEAE regardless of relationship","2.4 mg/kg Q3W, n = 3",1 (33) n (%)
same,"Nausea, TEAE related to teliso‐v","2.4 mg/kg Q3W, n = 3",1 (33) n (%)
same,"Neutrophil count decreased, TEAE regardless of relationship","2.4 mg/kg Q3W, n = 3",0 n (%)
same,"Neutrophil count decreased, TEAE related to teliso‐v","2.4 mg/kg Q3W, n = 3",0 n (%)
same,"Peripheral neuropathy, TEAE regardless of relationship","2.4 mg/kg Q3W, n = 3",2 (67) n (%)
same,"Peripheral neuropathy, TEAE related to teliso‐v","2.4 mg/kg Q3W, n = 3",2 (67) n (%)
same,"Peripheral sensory neuropathy, TEAE regardless of relationship","2.4 mg/kg Q3W, n = 3",1 (33) n (%)
same,"Peripheral sensory neuropathy, TEAE related to teliso‐v","2.4 mg/kg Q3W, n = 3",1 (33) n (%)
same,"Punctate keratitis, TEAE regardless of relationship","2.4 mg/kg Q3W, n = 3",1 (33) n (%)
same,"Punctate keratitis, TEAE related to teliso‐v","2.4 mg/kg Q3W, n = 3",1 (33) n (%)
same,"Weight decreased, TEAE regardless of relationship","2.4 mg/kg Q3W, n = 3",1 (33) n (%)
same,"Weight decreased, TEAE related to teliso‐v","2.4 mg/kg Q3W, n = 3",1 (33) n (%)
same,"White blood cell count decreased, TEAE regardless of relationship","2.4 mg/kg Q3W, n = 3",0 n (%)
same,"White blood cell count decreased, TEAE related to teliso‐v","2.4 mg/kg Q3W, n = 3",0 n (%)
same,Tolerability,"2.7 mg/kg Q3 W, Japanese patients",well‐tolerated
same,"Alanine aminotransferase increased, TEAE regardless of relationship","2.7 mg/kg Q3W, n = 6",2 (33) n (%)
same,"Alanine aminotransferase increased, TEAE related to teliso‐v","2.7 mg/kg Q3W, n = 6",2 (33) n (%)
same,"Alopecia, TEAE regardless of relationship","2.7 mg/kg Q3W, n = 6",2 (33) n (%)
same,"Alopecia, TEAE related to teliso‐v","2.7 mg/kg Q3W, n = 6",2 (33) n (%)
same,"Anemia, TEAE regardless of relationship","2.7 mg/kg Q3W, n = 6",1 (17) n (%)
same,"Aspartate aminotransferase increased, TEAE regardless of relationship","2.7 mg/kg Q3W, n = 6",2 (33) n (%)
same,"Aspartate aminotransferase increased, TEAE related to teliso‐v","2.7 mg/kg Q3W, n = 6",2 (33) n (%)
same,"Back pain, TEAE regardless of relationship","2.7 mg/kg Q3W, n = 6",1 (17) n (%)
same,"Constipation, TEAE regardless of relationship","2.7 mg/kg Q3W, n = 6",2 (33) n (%)
same,"Decreased appetite, TEAE regardless of relationship","2.7 mg/kg Q3W, n = 6",1 (17) n (%)
same,"Decreased appetite, TEAE related to teliso‐v","2.7 mg/kg Q3W, n = 6",1 (17) n (%)
same,"Diarrhea, TEAE regardless of relationship","2.7 mg/kg Q3W, n = 6",1 (17) n (%)
same,"Fatigue, TEAE regardless of relationship","2.7 mg/kg Q3W, n = 6",1 (17) n (%)
same,"Fatigue, TEAE related to teliso‐v","2.7 mg/kg Q3W, n = 6",1 (17) n (%)
same,"Hypoalbuminemia, TEAE regardless of relationship","2.7 mg/kg Q3W, n = 6",2 (33) n (%)
same,"Malaise, TEAE regardless of relationship","2.7 mg/kg Q3W, n = 6",0 n (%)
same,"Malaise, TEAE related to teliso‐v","2.7 mg/kg Q3W, n = 6",0 n (%)
same,"Nausea, TEAE regardless of relationship","2.7 mg/kg Q3W, n = 6",2 (33) n (%)
same,"Nausea, TEAE related to teliso‐v","2.7 mg/kg Q3W, n = 6",2 (33) n (%)
same,"Neutrophil count decreased, TEAE regardless of relationship","2.7 mg/kg Q3W, n = 6",2 (33) n (%)
same,"Neutrophil count decreased, TEAE related to teliso‐v","2.7 mg/kg Q3W, n = 6",2 (33) n (%)
same,"Peripheral neuropathy, TEAE regardless of relationship","2.7 mg/kg Q3W, n = 6",0 n (%)
same,"Peripheral neuropathy, TEAE related to teliso‐v","2.7 mg/kg Q3W, n = 6",0 n (%)
same,"Peripheral sensory neuropathy, TEAE regardless of relationship","2.7 mg/kg Q3W, n = 6",3 (50) n (%)
same,"Peripheral sensory neuropathy, TEAE related to teliso‐v","2.7 mg/kg Q3W, n = 6",3 (50) n (%)
same,"Punctate keratitis, TEAE regardless of relationship","2.7 mg/kg Q3W, n = 6",1 (17) n (%)
same,"Punctate keratitis, TEAE related to teliso‐v","2.7 mg/kg Q3W, n = 6",1 (17) n (%)
same,"Weight decreased, TEAE regardless of relationship","2.7 mg/kg Q3W, n = 6",2 (33) n (%)
same,"Weight decreased, TEAE related to teliso‐v","2.7 mg/kg Q3W, n = 6",1 (17) n (%)
same,"White blood cell count decreased, TEAE regardless of relationship","2.7 mg/kg Q3W, n = 6",3 (50) n (%)
same,"White blood cell count decreased, TEAE related to teliso‐v","2.7 mg/kg Q3W, n = 6",3 (50) n (%)
